In patent US20170298395A1, “AUTOTROPHIC HYDROGEN BACTERIA AND USES THEREOF” (Ohio State Innovation Foundation, priority 2011, published 2017):
Residue numbers refer to the chain shown, from its start. Numbers in names are those of the source.

B1: A117V (protein)
chain: MSSFLRALTLRQLQIFVTVARHASFVRAAEELHLTQPAVSMQVKQLESVVGMALFERVKGQLTLTEPGDRLLHHASRILGEVKDAEEGLQAVKDVEQGSITIGLISTSKYFAPKLLVGFTALHPGVDLRIAEGNRETLLRLLQDNAIDLALMGRPPRELDAVSEPIAAHPHVLVASPRHPLHDAKGFDLQELRHETFLLREPGSGTRTVAEYMFRDHLFTPAKVITLGSNETIKQAVMAGMGISLLSLHTLGLELRTGEIGLLDVAGTPIERIWHVAHMSSKRLSPASESCRAYLLEHTAEFLGREYGGLMPGRRVA
B2: A167V (protein)
chain: B1 chain with V117A, A167V
B3: D144N (protein)
chain: B1 chain with V117A, D144N
B4: wt CbbR: wild-type CbbR (R. eutropha), 317 amino acids, SEQ ID NO: 1 (protein)
chain: B1 chain with V117A
B5: E87K/G242S (protein)
chain: B1 chain with E87K, V117A, G242S
B6: L79F (protein)
chain: B1 chain with L79F, V117A
B7: G205D (protein)
chain: B1 chain with V117A, G205D
B8: R272Q (protein)
chain: B1 chain with V117A, R272Q
B9: constitutive cbbL promoter: constitutive R. eutropha cbbL promoter, SEQ ID NO: 30 (nucleic acid)
DNA: GCAACTGGCGAAGGGTAAGGGCGCGCAGGAAGGACGACATGGGCGGTTGGGGGCGGCTTTGGATGGTCCCGTGATGTGCAGCTTGGTCCGCACTTAAGGGATTGCTTATACAGGGGCTAAGAATATCTGAATTGACATTATGTGGGTGGGCTTATATAATTGCATCAACGCAGCAGCCAAGACGCTCAACCACGCAAGGAGACAAGC

tested on: RubisCO; test: not given; assay type: cell-based, Ralstonia eutropha; settings: CA growth conditions

Molecule	level of RubisCO relative to wild-type CbbR
B1	2.2 fold
B2	~2.7 fold
B3	2.2 fold

same assay, conditions: Table 9, chemoautotrophic growth conditions

Molecule	Chemoautotrophic RubisCO activity
B4	90 nmol/min/mg of protein
B5	128 nmol/min/mg of protein
B6	209 nmol/min/mg of protein
B7	133 nmol/min/mg of protein
B1	171 nmol/min/mg of protein
B2	173 nmol/min/mg of protein
B3	188 nmol/min/mg of protein

same assay, conditions: Table 12, chemoautotrophic (induced) growth

Molecule	Chemoautotrophic RubisCO activity
B4	139 nmol/min/mg of protein
B5	198 nmol/min/mg of protein
B6	304 nmol/min/mg of protein
B7	54 nmol/min/mg of protein
B1	314 nmol/min/mg of protein
B2	370 nmol/min/mg of protein
B3	314 nmol/min/mg of protein

same assay, conditions: Table 12, chemoheterotrophic (repressed) growth

Molecule	Chemoheterotrophic RubisCO activity
B4	0.1 nmol/min/mg of protein
B5	6 nmol/min/mg of protein
B6	4 nmol/min/mg of protein
B7	10 nmol/min/mg of protein
B1	6 nmol/min/mg of protein
B2	15 nmol/min/mg of protein
B3	26 nmol/min/mg of protein

tested on: Ralstonia eutropha cbbR deletion reporter strain; test: not given; assay type: cell-based; settings: chemoautotrophic, CO2/H2/O2 atmosphere, minimal media

Molecule	Doubling Time
B5	6.0 h
B6	5.6 h
B7	7.8 h
B3	6.8 h

tested on: cbbL transcript; test: not given; assay type: cell-based, Ralstonia eutropha; settings: chemoautotrophic growth, 26 cycles of PCR

Molecule	increase in transcription over wild type CbbR (RT-PCR, FIG. 22)
B2	4.1 fold
B3	1.8 fold

same assay, conditions: chemoautotrophic growth, OD 0.2

Molecule	increase in cbb transcript over wild type CbbR (RT-PCR, FIG. 21)
B1	1.9 fold
B2	3.3 fold
B3	2.4 fold

tested on: cbb promoter; test: not given; assay type: cell-based, Ralstonia eutropha; settings: Table 9, chemoautotrophic growth conditions

Molecule	Chemoautotrophic β-galactosidase activity
B4	3265 nmol/min/mg of protein
B5	4312 nmol/min/mg of protein
B6	6840 nmol/min/mg of protein
B7	2634 nmol/min/mg of protein
B1	6793 nmol/min/mg of protein
B2	7373 nmol/min/mg of protein
B3	6932 nmol/min/mg of protein

same assay, conditions: Table 12, chemoautotrophic (induced) growth

Molecule	Chemoautotrophic β-galactosidase activity
B4	3265 nmol/min/mg of protein
B5	4820 nmol/min/mg of protein
B6	6840 nmol/min/mg of protein
B7	2241 nmol/min/mg of protein
B1	6793 nmol/min/mg of protein
B2	7373 nmol/min/mg of protein
B3	6932 nmol/min/mg of protein

same assay, conditions: Table 12, chemoheterotrophic (repressed) growth

Molecule	Chemoheterotrophic β-galactosidase activity
B4	3 nmol/min/mg of protein
B5	303 nmol/min/mg of protein
B6	218 nmol/min/mg of protein
B7	488 nmol/min/mg of protein
B1	254 nmol/min/mg of protein
B2	768 nmol/min/mg of protein
B3	809 nmol/min/mg of protein

tested on: cbb promoter; test: not given; assay type: binding, R. eutropha; settings: in the presence of ATP

Molecule	effect of ATP on CbbR binding to cbb promoter probe (phosphorimage, in words)
B4	enhancement of binding
B8	modest enhancement of binding

same assay, conditions: in the presence of FBP

Molecule	effect of FBP on CbbR binding to cbb promoter probe (phosphorimage, in words)
B4	no enhancement of binding

same assay, conditions: in the presence of NADPH

Molecule	effect of NADPH on CbbR binding to cbb promoter probe (phosphorimage, in words)
B4	modest enhancement of binding

same assay, conditions: in the presence of Ru5P

Molecule	effect of Ru5P on CbbR binding to cbb promoter probe (phosphorimage, in words)
B4	no enhancement of binding

same assay, conditions: in the presence of RuBP

Molecule	effect of RuBP on CbbR binding to cbb promoter probe (phosphorimage, in words)
B4	enhancement of binding
B8	reduction of binding

tested on: R. eutropha; test: Relative promoter strength / gene expression in R. eutropha; assay type: cell-based; settings: autotrophic growth conditions
Description: The lac and tac promoters are E. coli promoters, but have been used to drive gene expression of other genes in R. eutropha. The pha promoter is a native R. eutropha promoter and drives expression of genes involved in polyhydroxybutyrate (PHB) production. The relative strength of these promoters in R. eutropha was determined. The pha promoter was 1.2 times stronger than the lac promoter and that the tac promoter was 2.1 times stronger than the lac promoter (1). The cbbM and cbbL promoters were also examined. The cbbM and cbbL promoters are strong promoters which drive expression of the genes that encode for RubisCO in Rhodosporilium rubrum/Rhodobacter sphaeroides/Rhodobacter capsulatus and R. eutropha, respectively. […] Each promoter was placed in the vector pBBR1MCS3, and the ability of these gene expression vectors was assessed (Table 4). The pBBR1 vector has Accession No. U02374 (4707 bp). The pBBR1MCS-3 vector has Accession No. U25059 (5228 bp). Plasmid pRPS-MCS3 (SEQ ID NO: 36) (see Journal of Molecular Biology, 331(3): 557-569 (2003)) derives from plasmid pBBR1-MCS3.
Vectors were made with the native cbbL and constitutive cbbL promoters. The cbbL promoter is native to R. eutropha and is highly expressed and regulated. […] To construct strains with a constitutive cbbL promoter, the lac promoter within the pBBR1MCS-3 vector was removed and replaced by the constitutive cbbL promoter. […]

Molecule	increase in gene expression
B9	2.4 fold
